Assay results reported in publication PMC8769072, “Proteome‐scale mapping of binding sites in the unstructured regions of the human proteome” (Molecular Systems Biology, 2022).
Blank lines part the entries; values can stand above or below the binder they belong to.

Columns and labels:
Experiment in all cases: fluorescence polarisation; competition: unlabelled peptide in serial dilution displaces a FITC-labelled probe peptide from the bait domain (master mix with protein at four times the KD of the probe, 10 nM probe, 2 mM DTT); 50 mM KPO4 or NaPO4 pH 7.5; triplicates; probe for KEAP1 Kelch: FITC-NFE2L1 228-243, other probes in Dataset EV6
Settings in all cases: both partners purified
[1] = target: KEAP1 Kelch, MBP‐tagged domain, for affinity measurements (human)
KEAP1 Kelch, MBP‐tagged domain, for affinity measurements (human), sequence (chain, as listed by the source): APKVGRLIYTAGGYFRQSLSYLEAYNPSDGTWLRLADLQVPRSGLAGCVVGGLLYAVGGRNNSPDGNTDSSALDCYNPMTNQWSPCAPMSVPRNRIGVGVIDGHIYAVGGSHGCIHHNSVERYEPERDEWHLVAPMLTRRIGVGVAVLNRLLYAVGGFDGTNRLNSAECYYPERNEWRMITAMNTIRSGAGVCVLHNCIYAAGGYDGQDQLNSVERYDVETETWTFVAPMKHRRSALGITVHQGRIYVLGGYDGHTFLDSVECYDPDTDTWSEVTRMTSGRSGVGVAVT

[2] = target: T1, 14‐3‐3 SFN, tag cleaved, for affinity measurements (human)
T1 chain: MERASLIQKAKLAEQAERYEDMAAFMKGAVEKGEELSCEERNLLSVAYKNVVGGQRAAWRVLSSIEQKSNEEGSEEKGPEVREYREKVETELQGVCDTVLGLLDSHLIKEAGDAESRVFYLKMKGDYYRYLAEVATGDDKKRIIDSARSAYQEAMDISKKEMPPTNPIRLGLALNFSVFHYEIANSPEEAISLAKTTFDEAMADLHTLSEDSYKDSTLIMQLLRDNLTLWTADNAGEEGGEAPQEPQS

[3] = target: T2, TLN1 PTB, tag cleaved, for affinity measurements (human)
T2 chain: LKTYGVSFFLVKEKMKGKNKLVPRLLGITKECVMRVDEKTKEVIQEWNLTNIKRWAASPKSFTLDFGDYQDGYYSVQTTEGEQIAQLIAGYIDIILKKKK

fold loss of affinity against the wild-type peptide [1]: 1000 fold
B1: NFE2L2 T80K peptide, synthetic (peptide)
chain: Ac-YDEEKGEFLPIQPAQH-NH2

fold loss of affinity against the wild-type peptide [1]: 1000 fold
B3: NFE2L2 E79K peptide, synthetic (peptide)
chain: Ac-YDEKTGEFLPIQPAQH-NH2

Ki [2]: 355 µM
B4: MAP1A_(1836–1851) peptide, synthetic (peptide)
peptide: PSWLADIPPWVPKDRP
notes: microtubule-associated protein 1A, human, residues 1836-1851; source: synthetic peptide, bought: GeneCust

More lines, now with the values behind:

B2: PTTG1_(4–19) peptide from securin, synthetic (peptide, UniProt O95997 4-19, looked up)
peptide: LIYVDKENGEPGTRVV
notes: securin, human, residues 4-19 (NGE containing); source: synthetic peptide, bought: GeneCust
Ki [1]: 1000 nM

B5: ITB3_(763–778) peptide from integrin beta‐3, synthetic (peptide)
peptide: AKWDTANNPLYKEATS
notes: integrin beta-3, human, residues 763-778; source: synthetic peptide, bought: GeneCust
Ki [3]: 500 µM
